Experimental findings from patent US10005846 are described below.

Where only a bound is given, the exact number is not on record here.

In test [1] the target is cynomolgus monkey TG2 (cynomolgus monkey).
In test [2] the target is human transglutaminase type 2 (TG2) (human) (UniProt P21980). Nature of the test: ELISA on immobilised human TG2; r2 0.9588; EC50 95% confidence range 0.06801 to 0.2396 [panel A]. (An ELISA detects its analyte on a solid surface through an enzyme-linked reagent.)
For test [3], the target named is cynomolgus monkey TG2 (cynomolgus monkey). Nature of the test: ELISA on immobilised cynomolgus monkey TG2; r2 0.9994; EC50 95% confidence range 0.3762 to 0.4603 [panel A].
Test [4] concerns the target human transglutaminase type 2 (TG2) (human) (UniProt P21980).
Test [5] has the same target. Nature of the test: ELISA on immobilised human TG2; r2 0.9991; EC50 95% confidence range 0.3291 to 0.4396 [panel A].
For test [6], the target named is cynomolgus monkey TG2 (cynomolgus monkey). As to the kind of experiment: ELISA on immobilised cynomolgus monkey TG2; r2 0.9586; EC50 95% confidence range 0.09303 to 0.4223 [panel A].

Sequence of human transglutaminase type 2 (TG2) (human) (P21980 whole entry): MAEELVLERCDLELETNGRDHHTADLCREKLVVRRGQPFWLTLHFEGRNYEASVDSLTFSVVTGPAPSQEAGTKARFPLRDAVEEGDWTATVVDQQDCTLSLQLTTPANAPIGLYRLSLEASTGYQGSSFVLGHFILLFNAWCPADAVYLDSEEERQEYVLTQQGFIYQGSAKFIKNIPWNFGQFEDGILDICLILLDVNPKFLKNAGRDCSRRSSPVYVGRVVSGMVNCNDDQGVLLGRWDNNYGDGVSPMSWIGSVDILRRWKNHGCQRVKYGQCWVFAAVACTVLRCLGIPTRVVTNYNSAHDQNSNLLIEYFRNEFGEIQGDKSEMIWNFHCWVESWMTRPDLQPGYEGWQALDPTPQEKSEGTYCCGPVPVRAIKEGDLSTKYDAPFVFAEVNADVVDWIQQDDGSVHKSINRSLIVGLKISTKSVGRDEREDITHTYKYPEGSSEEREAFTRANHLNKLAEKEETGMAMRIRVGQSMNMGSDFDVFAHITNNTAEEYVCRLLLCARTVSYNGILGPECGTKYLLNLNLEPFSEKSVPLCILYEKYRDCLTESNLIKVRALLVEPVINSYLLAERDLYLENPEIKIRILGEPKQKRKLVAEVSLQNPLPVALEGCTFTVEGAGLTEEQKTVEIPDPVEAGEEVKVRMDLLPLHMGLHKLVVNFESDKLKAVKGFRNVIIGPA
Sequence of cynomolgus monkey TG2 (cynomolgus monkey) (chain, as listed by the source): as the sequence (P21980 whole entry) above, with E4D, Q157R, N177S, H413S, I421T, Y528H, V542I counted along it

On to CUB7402 commercial anti-TG2 antibody, for which, in test [1], the IC50 of enzymatic inhibition, dansylated lysine incorporation into N,N-dimethylated casein [panel B] was more than 100 nM. In addition, the EC50 (in general, the concentration needed to bring the measured effect to its halfway point) in test [2] turned out to be 0.128 nM; in test [3], 0.416 nM; in test [5] it was 0.38 nM; in test [6] it was 0.198 nM. For the same substance, the IC50 of enzymatic inhibition, dansylated lysine incorporation into N,N-dimethylated casein [continued), panel F] in test [4] was more than 100 nM.
